Assays:
Rac1 = molecular target: T1, Rac1 (Homo sapiens, UniProt P63000); experiment: In vitro GDP release assay (filter-binding) on Rac1; format: biochemical; conditions: for dissociation of [3H]GDP from Rac1 (GEF activity): purified GST-IBP fusion protein, 4 pmol, [3H]GDP-loaded GST-Rac1
T1 construct: purchased Calbiochem-Novabiochem; host or cells: bacteria
Description: A-C, stimulation of GDP dissociation from Rho GTPases by wild-type or mutant IBP proteins. [^3H]GDP-loaded Rac1 (A), Cdc42 (B), or RhoA (C) was incubated with GST alone or with either wild-type or mutant GST-IBP fusion proteins, as indicated. The exchange reactions were stopped at the indicated time points, and the amount of [^3H]GDP remaining bound to the GTPases was then measured by filtering the quenched reaction samples over nitrocellulose membranes followed by scintillation counting of the membrane-bound radioactivity. The percentage of [^3H]GDP remaining bound at each time point was evaluated relative to the amount of radioactivity remaining at time 0 of the respective reaction, which was set to 100% in each experiment. The results shown are representative of at least three independent assays. D, regulation of IBP GEF activity by Lck and PI(3,4,5)P3. [^3H]GDP-loaded Rac1 was incubated with Lck-phosphorylated wild-type HA-IBP (IBP+Lck) in the presence or absence of PI(3,4,5)P3 (1 μM) for 0 or 40 min. Reactions without IBP (Lck and Lck^+ PI(3,4,5)P3) were simultaneously carried out as control. The exchange reactions were then stopped, and the amount of [^3H]GDP remaining bound to Rac1 was measured by filter-binding method as described for A-C. The percentage of [^3H]GDP remaining bound after incubation for 40 min was evaluated relative to the amount of radioactivity remaining at time 0 of the respective reaction, which was set to 100% in each experiment. The results shown are representative of at least three independent assays.
The in vitro GDP release assays were carried out by filter-binding method as described previously (28-31). To prepare [3H]GDP-loaded GTPases, 40 pmol of bacterially expressed and purified GST-Rac1, GST-Cdc42, or His-RhoA (Calbiochem-Novabiochem) was incubated with 1 μM [3H]GDP in 100 μl of a binding buffer (10 mM HEPES, pH 7.5, 100 mM NaCl, 5 mM MgCl2, 1 mM EGTA, 1 mM dithiothreitol, 50 μg/ml bovine serum albumin) for 60 min at 30° C. The nucleotide exchange reaction was initiated by adding 100 μM nonradioactive GTP and 4 pmol of purified GST alone or GST-IBP fusion proteins (or when appropriate, 4 pmol of purified wild-type HA-IBP either non-phosphorylated or in vitro phosphorylated by purified Lck and cold ATP) to the [3H]GDP-loaded GTPase and then equally splitting and incubating the reaction mixture for the indicated time periods at room temperature. […] The amount of [3H]GDP remaining bound to the GTPases was determined by filtering the quenched reaction samples over nitrocellulose membranes followed by extensive washing of the filters and then quantification of the membrane-bound radioactivity by scintillation counting.

Cdc42 = molecular target: T2, Cdc42 (Homo sapiens, UniProt P60953); experiment: In vitro GDP release assay (filter-binding) on Cdc42; format: biochemical; conditions: purified GST-IBP fusion protein, 4 pmol; [3H]GDP-loaded GST-Cdc42
T2 construct: purchased Calbiochem-Novabiochem; host or cells: bacteria
T2 sequence (P60953 whole entry, species assumed, the tested form may be a part): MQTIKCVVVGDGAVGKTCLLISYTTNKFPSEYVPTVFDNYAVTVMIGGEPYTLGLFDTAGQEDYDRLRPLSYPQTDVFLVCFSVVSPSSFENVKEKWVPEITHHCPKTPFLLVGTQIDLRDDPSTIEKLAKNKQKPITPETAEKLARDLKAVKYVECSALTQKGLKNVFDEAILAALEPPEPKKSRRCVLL
Description: A-C, stimulation of GDP dissociation from Rho GTPases by wild-type or mutant IBP proteins. [^3H]GDP-loaded Rac1 (A), Cdc42 (B), or RhoA (C) was incubated with GST alone or with either wild-type or mutant GST-IBP fusion proteins, as indicated. The exchange reactions were stopped at the indicated time points, and the amount of [^3H]GDP remaining bound to the GTPases was then measured by filtering the quenched reaction samples over nitrocellulose membranes followed by scintillation counting of the membrane-bound radioactivity. The percentage of [^3H]GDP remaining bound at each time point was evaluated relative to the amount of radioactivity remaining at time 0 of the respective reaction, which was set to 100% in each experiment. The results shown are representative of at least three independent assays. D, regulation of IBP GEF activity by Lck and PI(3,4,5)P3. [^3H]GDP-loaded Rac1 was incubated with Lck-phosphorylated wild-type HA-IBP (IBP+Lck) in the presence or absence of PI(3,4,5)P3 (1 μM) for 0 or 40 min. […] The exchange reactions were then stopped, and the amount of [^3H]GDP remaining bound to Rac1 was measured by filter-binding method as described for A-C. The percentage of [^3H]GDP remaining bound after incubation for 40 min was evaluated relative to the amount of radioactivity remaining at time 0 of the respective reaction, which was set to 100% in each experiment. […]

ability of wild-type IBP to promote GDP-GTP exchange on Rac1 after phosphorylation by Lck (Rac1; purified HA-IBP phosphorylated in vitro by purified Lck, 40 min)	GEF activity of Lck-phosphorylated wild-type IBP on Rac1 on addition of PI(3,4,5)P3 (Rac1; PI(3,4,5)P3 1 μM, 40 min)	dissociation of [3H]GDP from Cdc42 (GEF activity) (Cdc42)	dissociation of [3H]GDP from Rac1 (GEF activity) (Rac1)	Molecule
enhanced ability				Lck: purified Lck kinase, Src family protein tyrosine kinase, used to phosphorylate IBP in vitro
	stimulated			phosphatidylinositol 3,4,5-triphosphate [PI(3,4,5)P3, reference compound]
		did not stimulate the dissociation	did not stimulate the dissociation	wild-type IBP: purified recombinant full-length human IBP (IRF-4 Binding Protein), GST fusion or HA-tagged
		stimulated rapid GDP dissociation	stimulated rapid GDP dissociation	IBP 313-631: IBP mutant containing the putative DH domain alone, GST fusion protein (protein, UniProt Q9H4E7 313-631, looked up, fragment, GST fusion, IBP mutant containing the putative DH domain alone, GST fusion protein) LQAEGKTSLHKDLKQKRREQREQRERRRAAKEEELLRLQQLQEEKERKLQELELLQEAQRQAERLLQEEEERRRSQHRELQQALEGQLREAEQARASMQAEMELKEEEAARQRQRIKELEEMQQRLQEALQLEVKARRDEESVRIAQTRLLEEEEEKLKQLMQLKEEQERYIERAQQEKEELQQEMAQQSRSLQQAQQQLEEVRQNRQRADEDVEAAQRKLRQASTNVKHWNVQMNRLMHPIEPGDKRPVTSSSFSGFQPPLLAHRDSSLKRLTRWGSQGNRTPSPNSNEQQKSLNGGDEAPAPASTPQEDKLDPAPEN

Reference: patent US20060019915A1, “Method to modulate the immune system with a novel guanine nucleotide exchange factor” (priority 2004, published 2006)
